Data on five substances can be found in EP2386565A2, “Compounds and methods to inhibit or augment an inflammatory response” (Cambridge Enterprise Ltd., priority 1999, dated 2000).

Assay [1] concerns the target chemokine receptors on THP-1 cells. The assay can be described thus: binding to chemokine receptors on THP-1 cells; given as association constant.
Assay [2] addresses CCR5 (human) (UniProt P51681). Description: 12-point Scatchard analysis, 0.03 nM 125I-RANTES on HOS CCR5 cells and parental line, 4°C, 2 hours.
The target of assay [3] is T1, Duffy Antigen Receptor for Chemokines (DARC) (human) (UniProt Q16570).
T1 sequence (looked up): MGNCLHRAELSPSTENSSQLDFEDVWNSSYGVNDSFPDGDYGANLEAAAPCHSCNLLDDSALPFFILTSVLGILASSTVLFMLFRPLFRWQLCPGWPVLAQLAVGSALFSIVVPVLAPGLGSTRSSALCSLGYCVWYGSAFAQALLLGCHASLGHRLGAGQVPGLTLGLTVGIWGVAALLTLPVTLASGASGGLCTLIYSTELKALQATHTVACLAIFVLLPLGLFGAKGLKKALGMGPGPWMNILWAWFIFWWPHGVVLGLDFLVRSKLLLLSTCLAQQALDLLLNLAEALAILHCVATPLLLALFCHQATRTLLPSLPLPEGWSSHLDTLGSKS
Description: footnote c of Table 6; given as affinity constant.

Assay [4] addresses chemokine receptors on the surface of Jurkat cells. Description: 100 µM biotinylated peptide on Jurkat cells, alone minus excess unlabeled peptide.
Assay [5] addresses chemokine receptors on THP-1 cells. Description: 100 µM biotinylated peptide on THP-1 cells with 100-fold excess of the same unlabeled peptide.
For assay [6] the target is unchanged. Description: 100 µM biotinylated peptide on THP-1 cells, alone minus excess unlabeled peptide.
In assay [7] the target is chemokine receptors on the surface of Jurkat cells. The assay can be described thus: 100 µM biotinylated peptide on Jurkat cells with 100-fold excess of the same unlabeled peptide.
Assay [8] has the same target. The assay can be described thus: 100 µM biotinylated peptide on Jurkat cells (10^6 per reaction), 4°C, streptavidin-peroxidase/TMB.
Assay [9] deals with chemokine receptors on THP-1 cells. The assay can be described thus: 100 µM biotinylated peptide on THP-1 cells (4 x 10^5 per reaction), 4°C, streptavidin-peroxidase/TMB.
The target in assay [10] is chemokine receptors on the surface of Jurkat cells. Description: biotinylated peptide on cells, streptavidin-peroxidase.

Values joined by “and” are separate entries in the source; they are usually repeats but may differ in a detail not shown here. Equal entries are not always repeated.

Chain of CCR5 (human) (P51681 whole entry): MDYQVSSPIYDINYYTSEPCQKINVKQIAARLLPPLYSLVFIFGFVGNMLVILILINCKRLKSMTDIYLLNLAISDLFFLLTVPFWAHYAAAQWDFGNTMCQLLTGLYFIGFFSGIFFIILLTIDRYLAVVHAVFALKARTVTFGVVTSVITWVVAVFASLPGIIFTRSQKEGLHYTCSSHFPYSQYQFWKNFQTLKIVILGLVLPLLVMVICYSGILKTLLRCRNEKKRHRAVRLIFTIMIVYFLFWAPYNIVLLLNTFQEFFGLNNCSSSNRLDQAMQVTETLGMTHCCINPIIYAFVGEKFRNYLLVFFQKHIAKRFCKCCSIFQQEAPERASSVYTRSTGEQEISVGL

For the substance KQK (peptide), the Kd in [1] is 500 nM and 1000 nM.
For the substance “RANTES (from UniProt P13236 24-92) (ligand)”, the equilibrium dissociation constant (Kd) in assay [2] worked out at 1 nM.
For the substance WVQ (peptide), in [3], the Kd amounted to 2000 nM.
gp120:V3(BaL) (peptide): the ΔA450nm, specific binding is < 0 A450 in assay [4] and 0.535 A450 in assay [6]. The ΔA450nm, +100-fold excess unlabeled peptide in assay [5] is 0.107 A450; in assay [7], 0.168 A450. Besides, the ΔA450nm, alone in [8] worked out at 0.167 A450; in [9], 0.642 A450.
In the case of gp120:V3(IIIb) (peptide), the ΔA450nm, specific binding in [4] was 0.689 A450; in assay [6], 0.137 A450. Besides, the ΔA450nm, +100-fold excess unlabeled peptide came out at 0.131 A450 in assay [5] and 0.189 A450 in assay [7]. Further, the ΔA450nm, alone in assay [8] came to 0.878 A450; in assay [9], 0.268 A450. Also, the fold specific binding to Jurkat cells against THP-1 cells in assay [10] was 5 fold.
